Test results reported in paper PMC3697849.

Biological target: trypsin-digested STING c-di-GMP binding domain (CBD) (human) (UniProt Q86WV6)
Assay: SEC

stoichiometry N: 2
Substance: trypsin-digested STING c-di-GMP binding domain (CBD) (from UniProt Q86WV6 139-379) (domain or fragment)
